Numbered stars: 1 amine (or outer) side, 2 acyl side, 3 side chain; on linkers, the order of the positions; unused ones are H or OH. Bridge positions count the residues as written; N and C are the ends. Square brackets hold non-standard residues; d marks the D form. Peptide text beside a SMILES is read from it. I, II: the chains in the order shown. Actinocin(9to1) = Cc1c2oc3c(C)ccc(C(=O)[*:1])c3nc-2c(C(=O)[*:2])c(N)c1=O; NMeV = CN[C@H](C(=O)O)C(C)C; Sar = CNCC(=O)O
Assays:
C3H/10T1/2 cells = assay: Apoptosis of exponentially proliferating or quiescent 10T1/2 cells (adherent / non-adherent cell count); type: cell-based, mouse; settings: for apoptosis / cell death: quiescent 10T1/2 cells arrested in G0
Method: C3H/10T1/2 cells were grown in Eagle's basal medium (BME) supplemented with 10% heat-inactivated fetal bovine serum (FBS) at 37° C. in a humidified 5% CO2 atmosphere without antibiotics. Cells were plated at 2×10^3 cells/mL and fed every 3–4 days. Approximately 2 weeks after the initial seeding, the cells were completely quiescent and few if any mitotic cells were present. To analyze the effect of serum deprivation or cycloheximide treatment, the exponentially proliferating (approximately 75% confluent) or quiescent cultures were transferred to serum-free medium or medium supplemented with 10 μg/mL cycloheximide. At 24 hours, the apoptotic (i.e. non-adherent) cells and the non-apoptotic (i.e. adherent) cells were collected separately and their amounts were evaluated using a cell counter (Coulter Counter® ZM). Serum free conditioned medium was obtained after 24 hour incubation of quiescent 10T1/2 cells in BME. The RNA was isolated by the guanidine-isothiocyanate method described in Chomezinski and Sacchi (1987) Anal. Biochem., 162:156–59. 20 μg samples of total RNA were subjected to electrophoresis in a 1.2% agarose formaldehyde gel. Sambrook et al. (eds) (1989).

msarp1 = msarp1 expression in serum deprived exponentially growing 10T1/2 cells (Northern hybridization); type: cell-based, mouse; settings: cells grown in serum free media supplemented with TPA
Method: Isolated DNA fragments were labeled with [^32P]dCTP (3000 Ci/mmol, Amersham) in a random priming reaction according to Feinberg and Vogelstein, (1982), supra. Hybridization was carried out according to the standard protocol described in Sambrook et al. (1989), supra. The membranes were washed two times with 2×SSC at room temperature for 30 minutes. Following two additional washes at 56° C. in 0.1×SSC, 0.1% SDS, the membranes were autoradiographed onto a Kodak X-Omat® films.
Since it has previously been shown that media conditioned with exponentially growing 10T1/2 cells also prevents apoptosis, we also analyzed msarp1 expression in serum deprived exponentially growing cells. RNA was isolated at different time points after removal of serum.

β-catenin = assay: Intracellular β-catenin in MCF7 transfectants (Western immunoblot, immunohistochemistry); type: cell-based, human; settings: for intracellular concentration of β-catenin: Western immunoblot, MCF7 transfectants vs pcDNA3 control
Method: To determine whether SARPs interfered with Wnt-frizzled protein interaction, the expression of β-catenin in MCF7-transfectants was compared. The experiment was performed as follows. Cell Cultures. MCF7 human breast adenocarcinoma cells were plated at 2×10^5 cells/ml and cultured in Modified Eagle Medium (MEM) supplemented with 10% FBS. Serum free conditioned medium was obtained after 24 hour incubation of quiescent MCF7 cells in MEM.
(§1) Transfection of MCF7. MCF7 cells were transfected with the pcDNA3 mammalian expression vector (Invitrogen), containing either no insert, msarp1, or hsarp2 cDNAs, using LipofectAMINE reagent (Gibco) according to manufacturer's protocol. Stable transfectants and two-three weeks later single cell originated clones were selected with 1 mg/ml G418 and expression of the respective genes was confirmed by Northern hybridization.
Immunohistochemistry. Paraformaldehyde-fixed transfected MCF7 cells grown on 4-well Lab-Tek® chamber slides were probed by anti-β-catenin monoclonal IgG (Transduction Laboratories). Staining was performed by avidin-biotin-peroxydase system (Vector Laboratories) using diaminobenzidine as a substrate. IgG isolated from preimmune serum was used as a negative control.
Western Immunoblot. For Western analysis the samples of conditioned media were concentrated using CENTRIPREP®-10 concentrators (AMICON). Cells were harvested in extraction buffer consisting of 20 mM tris-HCl (pH 7.8), 5 mM MgCl2, 250 mM sucrose, 1% NP40. After 1 hour incubation on ice extracts were clarified by centrifugation. Protein concentrations of the cellular extracts were determined using DC Protein Assay kit (Bio Rad). Equal amount of proteins were subjected to SDS/PAGE (Sambrook, J., et al. (1989) Molecular Cloning: A Laboratory Manual (Second ed.) (CSHL Press), transferred onto nitrocellulose membranes, and probed with the anti-GST-mSARP1 polyclonal affinity purified IgG (1 μg/mL) or anti-β-catenin monoclonal IgG (Transduction Laboratories).

[1] = test system: MCF7 breast adenocarcinoma cell line; assay: Sensitivity of stably transfected MCF7 cells to cytotoxic stimuli; type: cell-based, human
Excerpt: The MCF7 breast adenocarcinoma cell line was chosen as a model to study the involvement of SARP proteins in the processes of apoptosis. The programmed cell death of these cells induced by different agents has been well characterized. Zyed et al. (1994) Cancer Res. 54:825–831. […] MCF7 cells were stably transfected with a pcDNA3 mammalian expression vector bearing full length msarp1 or hsarp2. The transfectants expressing msarp1 and hsarp2 were selected by Northern hybridization. […] Hannun and Obeid (1995) T. Biochem. Sci. 20:73–7; and Kolesnick and Fuks (1995) J. Exp. Med. 181:1949–52.
as §1

[2] = test system: MCF7 breast carcinoma cells; assay: Viability / apoptosis of MCF7 cells transfected with hsarp2 in pcDNA3; type: cell-based, human
Method: The NotI/XbaI fragment of hsarp2 was inserted into the NotI/XbaI sites of the mammalian expression vector pcDNA3 (Invitrogen). MCF7 breast carcinoma cells were transfected with this construct using LipofectAMINE reagent (Gibco BRL) according to manufacturer's protocol. The percentage of living cells was estimated by counting the relative amount of adherent cells using a Coulter Counter® (NZ). […] The cells were also treated with hTNF (50 ng/ml) and adriamycin (1 μg/ml). The results obtained are depicted in FIG. 6.

Cc1c2oc3c(C)ccc(C(=O)N[C@@H]4C(=O)N[C@H](C(C)C)C(=O)N5CCC[C@H]5C(=O)N(C)CC(=O)N(C)[C@@H](C(C)C)C(=O)O[C@@H]4C)c3nc-2c(C(=O)N[C@@H]2C(=O)N[C@H](C(C)C)C(=O)N3CCC[C@H]3C(=O)N(C)CC(=O)N(C)[C@@H](C(C)C)C(=O)O[C@@H]2C)c(N)c1=O [actinomycin D] (I: T[dV]P[Sar][NMeV] / II: T[dV]P[Sar][NMeV]; ester I:1-I:C, II:1-II:C; linker I:N-II:N via Actinocin(9to1))
apoptosis / cell death (C3H/10T1/2 cells): Apoptosis of G0 is also induced

α-amanitin
apoptosis / cell death (C3H/10T1/2 cells): Apoptosis of G0 is also induced

C[C@@H]1C[C@@H]([C@H](O)CC2CC(=O)NC(=O)C2)C(=O)[C@@H](C)C1 [cycloheximide]
apoptosis (C3H/10T1/2 cells; exponentially proliferating 10T1/2 cells, serum deprivation): apoptosis is delayed
apoptosis / cell death (C3H/10T1/2 cells): rapidly induces death

COc1ccc(C[C@H](N)C(=O)N[C@H]2[C@@H](O)[C@H](n3cnc4c(N(C)C)ncnc43)O[C@@H]2CO)cc1 [puromycin]
apoptosis / cell death (C3H/10T1/2 cells): Apoptosis of G0 is also induced

CCCCCCCCCCCCCC(=O)O[C@@H]1[C@@H](C)[C@@]2(O)[C@@H](C=C(CO)C[C@]3(O)C(=O)C(C)=C[C@@H]23)[C@H]2C(C)(C)[C@]12OC(C)=O [TPA]
induction of msarp1 message (msarp1): No induction of msarp1

B1: hSARP2: human secreted apoptosis related protein of 314 amino acids encoded by hsarp2 cDNA, SEQ ID NO: 18 (protein)
chain: SEYDYVSFQSDIGPYQSGRFYTKPPQCVDIPADLRLCHNVGYKKMVLPNLLEHETMAEVKQQASSWVPLLNKNCHAGTQVFLCSLFAPVCLDRPIYPCRWLCEAVRDSCEPVMQFFGFYWPEMLKCDKFPEGDVCIAMTPPNPTEASKPQGTTVCPPCDNELKSEAIIEHLCASEFALRMKIKEVKKENGDKKIVPKKKKPLKLGPIKKKDLKKLVLYLKNGADCPCHQLDNLSHHFLIMGRKVKSQYLLTAIHKWDKKNKEFKNFMKKMKNHECPTFQSVFK
intracellular concentration of β-catenin (β-catenin): decreases the intracellular concentration of β-catenin
cell sensitivity to apoptosis induced by TNF [1]: sensitized the cells to apoptosis
cell sensitivity to apoptosis induced by ceramide [1]: sensitized the cells to apoptosis
growth rate and cell cycle vs parental cells [1]: not significantly different
percentage of viable cells ([2]; MCF7 transfected with pcDNA3-hsarp2, adherent cells counted): decrease in the percentage of viable cells
programmed cell death ([2]; breast carcinoma cell line, increased expression of hsarp2, dose dependent): increase programmed cell death
percentage of cells undergoing apoptosis in culture ([2]; hsarp2 in expression vector transfected into human cell lines): increases

B2: mSARP1: mouse secreted apoptosis related protein of 295 amino acids encoded by msarp1, SEQ. ID. NO: 2 (protein)
chain: MPRGPASLLLLVLASHCCLGSARGLFLFGQPDFSYKRTNCKPIPANLQLCHGIEYQNMRLPNLLGHETMKEVLEQAGAWIPLVMKQCHPDTKKFLCSLFAPVCLDDLDETIQPCHSLCVQVKDRCAPVMSAFGFPWPDMLECDRFPQDNDLCIPLASSDHLLPATEEAPKVCEACKTKNEDDNDIMETLCKNDFALKIKVKEITYINRDTKIILETKSKTIYKLNGVSERDLKKSVLWLKDSLQCTCEEMNDINAPYLVMGQKQGGELVITSVKRWQKGQREFKRISRSIRKLQC
intracellular concentration of β-catenin (β-catenin): not sensitive enough to discern a significant difference
concentration of β-catenin (β-catenin; immunohistochemistry, MCF7 transfectants): higher concentration of β-catenin
cell sensitivity to apoptosis induced by TNF [1]: higher resistance
cell sensitivity to apoptosis induced by ceramide [1]: higher resistance
growth rate and cell cycle vs parental cells [1]: not significantly different
